Test results reported in US20250059274A1, “ANTI-FRa ANTIBODY, AND ANTIBODY-DRUG CONJUGATE AND USE THEREOF” (Bio-Thera Solutions, Ltd., priority 2021, published 2025).
Read-outs that look alike come from different tables or passages of the source. One block for each molecule: values may come before it.

How the values were obtained:
[1] = Exatecan in plasma, 0.25 mg/kg iv infusion 30 min
Experimental: 24 common cynomolgus monkeys aged 3-5 years (half male and half female) were adopted and randomly divided into 4 groups, and each group consisted of 3 female animals and 3 male animals. […] Blood samples were collected until 504 hours after the end of the administration. The major pharmacokinetic parameters, i.e., AUC(0-t), AUC(0-∞), T1/2, Cmax, Tmax, CL, MRT, etc., were calculated from the plasma concentration data with a non-compartmental model using Phoenix WinNonlin® 7.0 software.

[2] = target: Rat FOLR1 (Rattus norvegicus, UniProt Q9JL02); assay: ELISA species specificity of antibodies; type: binding; conditions: coated antigen rat FOLR1
Experimental: (§1) Each antigen was diluted to 1 μg/mL with PBS and added to a microplate (manufacturer: Corning, Catalog No.: 42592) in a volume of 100 μL per well, and the microplate was coated overnight in a refrigerator (2-8° C.). The coating solution was discarded, and 200 μL of a blocking solution (containing 5% skimmed milk powder, prepared from PBS) was added. The microplate was left to stand in an electric thermostatic incubator at 37° C. for 2 h. The blocking solution was discarded, and the microplate was washed 3 times with 0.05% PBST. Antibody dilutions at different concentrations (at an initial concentration of 6 μg/mL, 3-fold dilution, 8 concentration gradients in total, diluted with PBS) were added at 100 μL per well. The microplate was left to stand in the electric thermostatic incubator at 37° C. for 2 h. The antibody dilutions were discarded, and the microplate was washed 8 times with 0.05% PBST and patted dry. Anti-Human Kappa Light Chains (Bound and Free) peroxidase antibody Produced in goat (manufacturer: sigma, Catalog No.: A7164-1ML) diluted in a 1:10000 ratio was added at 100 µL/well. The microplate was left to stand in the electric thermostatic incubator at 37° C. for 1 h. […] The microplate was read on SpectraMax Plus Absorbance Microplate Reader with an absorption light wavelength of 450 nm.

[3] = target: Mouse FOLR1 (Mus musculus, UniProt P35846); assay: ELISA species specificity of antibodies; type: binding; conditions: coated antigen mouse FOLR1
Experimental: as §1

[4] = target: T1, antigen FRα-His (human FRα extracellular domain with C-terminal 8×HIS tag) (human, UniProt P15328 25-233); assay: SPR (Biacore T200), drug captured on Protein A chip, FRα-His as analyte, 1:1 model
T1 construct: The entry still carries the N-terminal signal peptide; Expressed in CHO-K1 cells; also called FOLR1
Experimental: (§2) A Protein A chip was used for the assay.
(§3) Experiment results were analyzed using data analysis software Evaluation Software 3.1. The sensing signals acquired from the experimental flow channels for the samples were subjected to double subtraction (minus values of reference flow channels and blank control), and the fitting was performed using a “1:1” kinetic model to obtain the kinetic parameters (Ka: association rate; Kd: dissociation rate; KD: equilibrium dissociation constant) for the binding of each sample to the antigens.

[5] = target: T1, antigen FRα-His (human FRα …); assay: ELISA, antigen coated at 1 µg/mL, antibody titrated
Experimental: (§4) Each antigen was diluted to 1 μg/mL with PBS and added to a microplate (manufacturer: Corning, Catalog No.: 42592) in a volume of 100 μL per well, and the microplate was coated overnight in a refrigerator (2-8° C.). The coating solution was discarded, and 200 μL of a blocking solution (containing 5% skimmed milk powder, prepared from PBS) was added. The microplate was left to stand in an electric thermostatic incubator at 37° C. for 2 h. The blocking solution was discarded, and the microplate was washed 3 times with 0.05% PBST. Antibody dilutions at different concentrations (at an initial concentration of 6 μg/mL, 3-fold dilution, 8 concentration gradients in total, diluted with PBS) were added at 100 μL per well. The microplate was left to stand in the electric thermostatic incubator at 37° C. for 2 h. The antibody dilutions were discarded, and the microplate was washed 8 times with 0.05% PBST and patted dry. Anti-Human Kappa Light Chains (Bound and Free) peroxidase antibody Produced in goat (manufacturer: sigma, Catalog No.: A7164-1ML) diluted in a 1:10000 ratio was added at 100 µL/well. The microplate was left to stand in the electric thermostatic incubator at 37° C. for 1 h. The antibody dilutions were discarded, and the microplate was washed 8 times with 0.05% PBST and patted dry. Single-component TMB substrate solution I (manufacturer: Huzhou InnoReagents Co., Ltd.; Catalog No.: TMB-S-001) was added at 100 μL/well, and the microplate was left to stand in the electric thermostatic incubator at 37° C. for 10 min in the dark. 0.1 M H₂SO₄ was added at 100 μL/well to terminate the reaction.

[6] = target: T2, Cynomolgus monkey FOLR1 (manufacturer: Acro, Catalog No.: F01-C52H8) (cynomolgus monkey, UniProt A0A2K5U044 25-233); assay: as above
T2 construct: Bought reagent
Experimental: as §4

[7] = target: T3, Rat FOLR1 (manufacturer: sino Biological, Catalog No.: 81073-R08NO0507) (rat, UniProt G3V8M6 25-232); assay: ELISA, antigen coated at 1 µg/mL
T3 construct: Bought reagent
Experimental: as §4

[8] = target: T4, Mouse FOLR1 (manufacturer: Acro, Catalog No.: F01-M5225) (mouse, UniProt P35846 25-232); assay: ELISA, antigen coated at 1 µg/mL
T4 construct: Bought reagent
Experimental: as §4

[9] = target: T5, FOLR3 (purchased from R&D, Catalog No. 5319-FR-050) (UniProt P41439 23-245, limits assumed); assay: SPR (Biacore T200), antibody captured on Protein A chip, antigen as analyte
T5 construct: Bought reagent; also called folate receptor γ
Experimental: as §2, §3

[10] = target: T6, FOLR2 (purchased from Acro, Catalog No. FO2-H5223) (UniProt P14207 17-228); assay: as above
T6 construct: Bought reagent; also called folate receptor β
Experimental: as §2, §3

[11] = target: T1, antigen FRα-His (human FRα …); assay: SPR (Biacore T200), antibody captured on Protein A chip, antigen as analyte, 1:1 model; Table 7 experiment (antigen specificity, FOLR1/FOLR2/FOLR3)
Experimental: as §2, §3

[12] = target: T7, folate receptor α (FRα) on FRα-positive cells (JEG-3, MCF-7) (UniProt P15328 25-234, limits assumed); assay: flow cytometry on JEG-3 cells
T7 construct: whole, on cells; also called JEG-3 cells; JEG3 cells

[13] = target: T1, antigen FRα-His (human FRα …); assay: SPR (Biacore T200), antibody captured on Protein A chip, antigen as analyte, 1:1 model
Experimental: as §2, §3

T1 sequence (P15328 other isoform, or with tags, fused parts or gaps limits assumed): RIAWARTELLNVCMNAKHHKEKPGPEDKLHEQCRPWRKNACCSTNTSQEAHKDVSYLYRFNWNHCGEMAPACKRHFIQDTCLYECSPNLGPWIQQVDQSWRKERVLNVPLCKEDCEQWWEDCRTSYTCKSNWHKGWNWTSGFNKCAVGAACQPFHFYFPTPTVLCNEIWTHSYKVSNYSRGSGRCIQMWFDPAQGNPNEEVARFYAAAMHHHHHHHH
T3 sequence (G3V8M6 entry or part of it limits assumed): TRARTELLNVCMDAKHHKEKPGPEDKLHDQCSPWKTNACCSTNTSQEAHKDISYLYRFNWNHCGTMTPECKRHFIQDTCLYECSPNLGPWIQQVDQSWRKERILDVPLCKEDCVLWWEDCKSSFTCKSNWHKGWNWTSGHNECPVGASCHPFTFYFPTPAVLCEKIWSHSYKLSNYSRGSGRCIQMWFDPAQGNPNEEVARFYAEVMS
T6 sequence (P14207 17-228 limits assumed): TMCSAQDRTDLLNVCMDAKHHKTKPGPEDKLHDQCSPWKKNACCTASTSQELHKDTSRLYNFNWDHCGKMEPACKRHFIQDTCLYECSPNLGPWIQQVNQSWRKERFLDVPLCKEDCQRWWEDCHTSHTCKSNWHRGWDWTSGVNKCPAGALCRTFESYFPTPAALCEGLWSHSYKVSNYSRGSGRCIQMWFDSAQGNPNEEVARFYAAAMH
T2 sequence (A0A2K5U044 entry or part of it): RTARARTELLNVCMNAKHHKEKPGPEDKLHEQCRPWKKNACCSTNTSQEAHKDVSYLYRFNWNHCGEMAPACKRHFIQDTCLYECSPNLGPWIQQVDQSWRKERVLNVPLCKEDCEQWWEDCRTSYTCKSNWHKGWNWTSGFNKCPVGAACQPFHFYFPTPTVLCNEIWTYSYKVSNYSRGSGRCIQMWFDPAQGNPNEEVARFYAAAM
T5 sequence (P41439 23-245 limits assumed): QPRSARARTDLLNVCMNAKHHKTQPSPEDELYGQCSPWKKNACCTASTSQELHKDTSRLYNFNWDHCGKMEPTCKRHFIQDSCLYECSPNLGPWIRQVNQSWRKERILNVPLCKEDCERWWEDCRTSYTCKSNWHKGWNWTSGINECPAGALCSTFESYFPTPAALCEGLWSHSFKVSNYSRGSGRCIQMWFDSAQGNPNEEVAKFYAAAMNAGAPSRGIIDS
T4 sequence (P35846 25-232 limits assumed): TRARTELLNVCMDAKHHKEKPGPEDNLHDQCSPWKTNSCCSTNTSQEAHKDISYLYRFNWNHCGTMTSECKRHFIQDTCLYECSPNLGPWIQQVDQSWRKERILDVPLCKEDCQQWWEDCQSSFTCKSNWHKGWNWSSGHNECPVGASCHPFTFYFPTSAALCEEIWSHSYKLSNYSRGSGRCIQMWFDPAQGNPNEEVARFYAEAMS
Sequence of Rat FOLR1 (Q9JL02 20-255): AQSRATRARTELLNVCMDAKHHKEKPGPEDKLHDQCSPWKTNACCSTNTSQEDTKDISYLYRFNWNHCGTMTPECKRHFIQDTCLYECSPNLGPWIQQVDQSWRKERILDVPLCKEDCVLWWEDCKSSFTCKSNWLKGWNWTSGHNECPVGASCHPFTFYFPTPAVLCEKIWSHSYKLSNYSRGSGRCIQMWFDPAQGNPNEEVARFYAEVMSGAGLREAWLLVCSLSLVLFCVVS
Sequence of Mouse FOLR1 (P35846 25-232): as the sequence (P35846 25-232 limits assumed) above
T7 sequence (P15328 25-234 limits assumed): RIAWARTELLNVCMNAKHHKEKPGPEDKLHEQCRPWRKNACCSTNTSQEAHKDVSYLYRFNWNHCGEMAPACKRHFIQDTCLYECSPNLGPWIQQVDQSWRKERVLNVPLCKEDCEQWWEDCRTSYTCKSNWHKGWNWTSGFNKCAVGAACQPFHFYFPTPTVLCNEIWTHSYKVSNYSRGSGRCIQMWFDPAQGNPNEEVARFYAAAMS

Molecule: (1S,9S)-1-amino-9-ethyl-5-fluoro-9-hydroxy-4-methyl-1,2,3,9,12,15-hexahydro-10H,13H-benzo[3′,4′:6,7]indoline[1,2-b]quinoline-10,13-dione methanesulfonate [Exatecan Mesylate]
AUC(0-t) ([1]; female): 155.05 ng·h/mL
Cmax ([1]; female): 237.567 ng/mL
Tmax ([1]; female): 30 min
AUC(0-t) ([1]; male): 231.77 ng·h/mL
Cmax ([1]; male): 349.808 ng/mL
Tmax ([1]; male): 30 min

B1: Antibody 1 (humanized anti-FRα antibody) (antibody, human IgG1, kappa, V domains shown)
VH: QVQLVQSGVEVKKPGASVKVSCKASGYSFTGYFMNWVRQAPGQGLEWIGRIHPYDGDTFYNQNFKDKATLTVDKSTTTAYMELKSLQFDDTAVYYCTRYDGSRAMDYWGQGTTVTVSS
VL: EIVLTQSPATLSLSPGERATLSCKASQSVSFAGTSLMHWYQQKPGQAPRLLIYRASNLEAGVPARFSGSGSKTDFTLTISSLEPEDFAVYYCQQSREYPYTFGGGTKVEIKR
notes: also called anti-FRα antibody No. 1
Kd [4]: 0.287 nM
koff [4]: 0.000293 s⁻¹
kon [4]: 1.02e+06 M⁻¹ s⁻¹
EC50 [5]: 0.069 µg/mL
EC50 [6]: 0.066 µg/mL
binding result [7]: no binding (tested: antibody up to 6 µg/mL)
binding result [8]: no binding (tested: antibody up to 6 µg/mL)
binding result [9]: no binding (tested: antigen up to 100 nM)
binding result [10]: no binding (tested: antigen up to 100 nM)
Kd [11]: 0.703 nM
EC50 [12]: 1.41 nM

Second part, led by results:

EC50 [2]: — (“—” indicates no binding)
EC50 [3]: — (“—” indicates no binding)
Molecule: huMOV19: control antibody huMOV19, heavy chain SEQ ID NO: 34, light chain SEQ ID NO: 35

EC50 [5]: 0.09 µg/mL
EC50 [6]: 0.087 µg/mL
Kd [13]: 0.468 nM
B2: control antibody huMOV19 (antibody, human IgG1, kappa, V domains shown)
VH: QVQLVQSGAEVVKPGASVKISCKASGYTFTGYFMNWVKQSPGQSLEWIGRIHPYDGDTFYNQKFQGKATLTVDKSSNTAHMELLSLTSEDFAVYYCTRYDGSRAMDYWGQGTTVTVSS
VL: DIVLTQSPLSLAVSLGQPAIISCKASQSVSFAGTSLMHWYHQKPGQQPRLLIYRASNLEAGVPDRFSGSGSKTDFTLTISPVEAEDAATYYCQQSREYPYTFGGGTKLEIKR
binding result [7]: no binding (tested: antibody up to 6 µg/mL)
binding result [8]: no binding (tested: antibody up to 6 µg/mL)
binding result [9]: no binding (tested: antigen up to 100 nM)
binding result [10]: no binding (tested: antigen up to 100 nM)
